Source: publication PMC4560963 (Molecular cell, 2015)

Target: the molecule itself
Assay: native gel or EMSA

B1: recombinant His6-TAF11 (natural protein)
chain: not shown
Question: B1 was tested. Which “stoichiometry N” value did it give?
Answer: The value was 4.
